The text below walks through data of patent publication US20190375786A1, “STABLE PEPTIDES AND METHODS OF USE THEREOF” (Fred Hutchinson Cancer Research Center, priority 2016, published 2019).

For data set [1], the target named is T1, pepsin (Sus scrofa, UniProt P00791). Nature of the data set: Stability in SPTD (simulated gastric fluid, pepsin, Tris and DTT), RP-HPLC. The class given is in vitro ADME. The settings on record: SGF pH 1.05 with 500 U/ml pepsin, 100 mM Tris, 10 mM DTT. The procedure:
(§1) Peptides were first suspended in 500 ul of ddH2O to a stock concentration of 2 mg/ml. Reactions were prepared by adding 12.5 ug of peptide from the stock solution to a 10 mM solution of DTT in PBS and allowed to incubate at room temperature for 30 minutes. Other reactions were prepared with 12.5 μg peptide with or without 500 U/ml pepsin in simulated gastric fluid (SGF; pH 1.05; […] sodium chloride in 0.7% (v/v) hydrochloric acid) and were incubated for 30 minutes at 37.5° C. Some reactions were quenched with a final concentration of 100 mM Tris base and 10 mM dithiothreitol (DTT). Some reactions were performed in all of the above components, including simulated gastric fluid, pepsin, Tris, and DTT (referred to as SPTD). Reversed phase HPLC (RP-HPLC) was run on samples using an Agilent 1260 HPLC equipped with a C-18 Poroshell 120B column. Sample were analyzed by a gradient method with a mobile phase of Solvent A (water with 0.1% TFA) and Solvent B (acetonitrile with 0.1% TFA). Solvent B was ramped up from 5%-45% of the mobile phase over a period of 10 minutes. Peptides were detected at an absorbance of 214 nm and 280 nm.

A short description of data set [2]: Stability in simulated gastric fluid (SGF, pH 1.05), RP-HPLC. The class given is physicochemical. The settings on record: HPLC vs non-reduced peptide. The procedure:
as §1
This example illustrates peptide stability in biological conditions including in the presence of reducing agents, proteases, oxidative conditions, acidic conditions, and simulated gastric fluids. […] Various peptides were suspended in 500 μl of ddH2O at a stock concentration of 2 mg/ml. This was then diluted in accord with the reaction conditions to prevent adverse buffering effects. Reactions were prepared with 12.5 μg peptide dissolved in solution and, in some samples, additionally suspended in a 10 mM solution of DTT, simulated gastric fluid (pH 1.05; […] sodium chloride in 0.7% (v/v) hydrochloric acid), 500 U pepsin (5000 U/ml pepsin), 50 U trypsin (500 U/ml trypsin) with 1 mg/ml inhibitor in PBS, or a combination of any of these conditions. All protease reactions were incubated for 30 min at room temperature and then quenched. Pepsin reactions were quenched by adding Tris base to a final concentration of 0.075 M. Trypsin reactions were quenched by adding excess soybean trypsin inhibitor. RP-HPLC was then run on samples using an Agilent 1260 HPLC equipped with a C-18 Poroshell 120B column. Sample were analyzed by a gradient method with a mobile phase of Solvent A (water with 0.1% TFA) and Solvent B (acetonitrile with 0.1% TFA). Solvent B was ramped up from 5%-45% of the mobile phase over a period of 10 minutes.

A further data set addresses trypsin (Sus scrofa, UniProt P00761). The data set is described as follows: Trypsin digestion resistance of soluble peptide, RP-HPLC. The class given is in vitro ADME, porcine. More on the design: purchased Sigma Aldrich 6567. The settings on record: HPLC; for resistance to trypsin digestion (in words): 500 U/ml trypsin (50 U per reaction), 30 minutes at 37.5° C. Summed up:
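Read-out was RP-HPLC (C-18, water/acetonitrile with 0.1% TFA, 5-45% over 10 min) of peptide left after trypsin treatment. Digest: 12.5 μg peptide, 500 U/ml porcine trypsin, PBS, 37.5° C for 30 min, stopped by soybean trypsin inhibitor; samples then reduced (10 mM DTT) or left non-reduced.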

Data set [3] has as its target T1, pepsin. Nature of the data set: Pepsin digestion resistance in simulated gastric fluid, RP-HPLC. The class given is in vitro ADME, porcine. Further details: purchased Sigma Aldrich P7012. The settings on record: HPLC; for resistance to pepsin digestion (in words): 500 U/ml pepsin (50 U per reaction) in SGF, 30 minutes at 37.5° C. Summed up:
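Digestion resistance read by reversed-phase HPLC (C-18, 0.1% TFA, 5–45% acetonitrile over 10 min; 214/280 nm) after 12.5 μg peptide spent 30 min at 37.5 °C in pH 1.05 simulated gastric fluid, with or without 500 U/ml pepsin. Some samples quenched with Tris base and DTT.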

The next data set deals with TEAD protein. Nature of the data set: Binding of surface-displayed (SDGF) peptide to biotinylated target protein after reducing agent, flow cytometry. The class given is cell-based. The conditions noted are these: HEK-293 cells displaying peptide, 20 nM biotinylated target protein. The protocol:
Designed or engineered peptides of this disclosure were also tested to evaluate if the peptides' binding activity to their target protein (e.g., TEAD protein) was affected by exposure to reducing conditions. HEK-293T suspension cells were transfected with a surface display GFP FasL(SDGF) vector comprising SEQ ID NO: 39 (SDGF-SEQ ID NO: 39) or SDGF vector comprising SEQ ID NO: 43 (SDGF-SEQ ID NO: 43) construct. Cultures were grown for two days, followed by incubation in 10 mM GSH or 10 mM DTT. Finally, cells were stained with biotinylated-target protein to evaluate the binding activity of a peptide to the target protein. FIG. 15 illustrates the stability of peptides of SEQ ID NO: 39 and SEQ ID NO: 43 after exposure to a reducing agent. Each peptide was expressed on a cell surface and tested for binding to a target protein after cells expressing SDGF-SEQ ID NO: 43 or SEQ ID NO: 39 were exposed to a reducing agent. FIG. 15A illustrates a flow cytometry plot showing binding of HEK-293 suspension cells transfected with SDGF-SEQ ID NO: 39 (GFP) incubated for 5 minutes in PBS, 10 mM DTT, or 10 mM reduced glutathione (GSH) before staining with 20 nM biotinylated target protein and 20 nM AF647-streptavidin. FIG. 15B illustrates a flow cytometry plot showing binding of HEK-293 suspension cells transfected with SDGF-SEQ ID NO: 43 (GFP) incubated for 5 minutes in PBS, 10 mM DTT, or 10 mM reduced glutathione (GSH) before staining with 20 nM biotinylated target protein and 20 nM AF647-streptavidin. FIG. 15C illustrates quantification of the AF647 mean fluorescence intensity (MFI) of cells falling within the “slice” gate shown in FIG. 15A and FIG. 15B. […] In other words, peptides of SEQ ID NO: 39 and SEQ ID NO: 43 were resistant to reduction by GSH.

A short description of data set [4]: Resistance to reduction by reduced glutathione (GSH), HPLC. The class given is physicochemical. The settings on record: 10 mM reduced glutathione (GSH); HPLC vs non-reduced peptide. The protocol: This example describes stability of designed or engineered peptides under reducing conditions. Peptides that are designed or engineered to interact with one or more target proteins in the cell, such as proteins in the nucleus, are exposed to reducing conditions in the cytosolic compartment of cells. Thus, it is advantageous for peptides of this disclosure to display stability in reducing conditions. Stability of peptides of this disclosure was tested in 10 mM DTT and 10 mM GSH. GSH is a more physiologically relevant reducing agent for testing peptide stability in intracellular conditions. An example of a peptide-target protein interaction is a peptide binding to a TEAD protein.

Data set [5] is described as follows: Circular dichroism thermal stability, heating 20° C. to 95° C. The class given is physicochemical. The conditions noted are these: 10 mM phosphate buffer pH 7.4; heated 20° C. to 95° C. The protocol: (§2) Protein secondary structures were assessed using Circular Dichrosim (CD). CD spectra were measured with a Jasco J-720W spectropolarimeter using a 1.0 mm path length cell. Protein samples in 10 mM phosphate buffer (pH=7.4) were at 25-30 μM protein concentration. Samples were analyzed at wavelength ranges of […]. Data were expressed in terms of relative ellipticity [θ]; (mdeg). To determine thermal stability of proteins, samples were subjected to incremental increase in temperature at a ramp of 2° C./min from 20° C. to 95° C. Stability and protein unfolding were monitored at 220 and 215 for α-helix and β-sheet secondary structures, respectively. Data are expressed in terms of relative ellipticity [θ], reported in mdeg. For SEQ ID NO: 43 and its point mutant variants, no changes to the α-helix-dominated structure were observed upon heating up to 95° C. […] Additionally, protein melting temperature (Tm) determination was performed by monitoring protein unfolding using SYPRO Orange dye (Molecular Probes). In brief, 0.1 mg/mL protein sample in 20 μL total volume PBS buffer were mixed with 24, of 10× SYPRO Orange dye. Dye intercalation into the hydrophobic protein core following protein unfolding was assayed using the C1000 Touch Thermal Cycler with CFX96 Deep Well Real-Time System (BioRad). Samples were heated from 20° C. to 95° C. with stepwise increments of 0.5° C. per minute and a 5 sec hold step for every point, followed by fluorescence reading. Tm were calculated by analyzing the derivatives of Relative florescence Units (RFU). FIG. 17D illustrates this SYPRO Orange melting assay of Peptides.
Background: Circular dichroism is widely used to follow secondary structure.

Data set [6] is described as follows: Resistance to reduction by DTT, RP-HPLC. The class given is physicochemical. The settings on record: 10 mM DTT; HPLC vs non-reduced peptide. The method, boiled down:
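Peptide (12.5 μg from a 2 mg/ml stock, or 0.015 mM final in PBS) was held 30 min at room temperature with or without 10 mM DTT. Reduced and non-reduced forms were compared by C-18 RP-HPLC using a 5–45% acetonitrile/0.1% TFA gradient over 10 min, with detection at 214 and 280 nm.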

Data set [7] in a line: SYPRO Orange melting assay. The class given is physicochemical. The settings on record: heating from 20° C. to 95° C. The procedure: as §2
The nature of data set [8]: Resistance to elevated temperature, HPLC. The class given is physicochemical. The conditions noted are these: 100° C. for 1 hour; HPLC. Summed up: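 Peptides were incubated at room temperature, 70° C or 100° C for one hour in ddH2O; another protocol used 70° C, 75° C or 100° C for one hour in 0.5 mM PBS, then pelleting and analysis of the supernatant. Remaining peptide was measured by C-18 RP-HPLC, 5–45% acetonitrile/0.1% TFA over 10 min.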

“Also recorded” adds a separate entry of the source. Positions of bridges follow the written chain, without caps; N, C: chain ends. Residues, ends and D or L forms follow the SMILES beside them.

trypsin, sequence (P00761 9-231): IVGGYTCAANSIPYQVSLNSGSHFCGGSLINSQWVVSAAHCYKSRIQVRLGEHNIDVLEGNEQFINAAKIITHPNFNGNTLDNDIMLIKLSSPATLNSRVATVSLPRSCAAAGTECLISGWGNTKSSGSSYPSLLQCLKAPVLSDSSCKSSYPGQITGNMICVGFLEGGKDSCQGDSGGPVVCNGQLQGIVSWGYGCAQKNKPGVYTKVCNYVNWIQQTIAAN
T1 sequence (P00791 60-385): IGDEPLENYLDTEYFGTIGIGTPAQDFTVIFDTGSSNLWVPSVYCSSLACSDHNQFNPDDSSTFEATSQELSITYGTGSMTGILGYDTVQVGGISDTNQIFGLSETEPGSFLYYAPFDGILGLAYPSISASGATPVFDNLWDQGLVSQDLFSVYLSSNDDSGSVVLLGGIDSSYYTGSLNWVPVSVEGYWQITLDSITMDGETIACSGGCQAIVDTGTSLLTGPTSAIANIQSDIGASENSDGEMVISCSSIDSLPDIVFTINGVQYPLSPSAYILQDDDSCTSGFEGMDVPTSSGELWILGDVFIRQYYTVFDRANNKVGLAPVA

On to `CC[C@H](C)[C@@H]1NC(=O)[C@@H]2CSSC[C@H](NC(=O)[C@H](CCCCN)NC(=O)[C@@H](NC(=O)[C@H](CC(N)=O)NC(=O)[C@@H](NC(=O)[C@@H]3CCCN3C(=O)[C@@H](NC(=O)CNC(=O)[C@H](CO)NC(=O)CN)C(C)C)[C@@H](C)CC)C(C)C)C(=O)N[C@@H](CCCNC(=N)N)C(=O)NCC(=O)N[C@@H](CO)C(=O)N[C@@H](CCCNC(=N)N)C(=O)N[C@@H](CC(=O)O)C(=O)N[C@H]3CSSC[C@H](NC(=O)[C@H](CCCCN)NC(=O)[C@H](CO)NC(=O)[C@H](CC(N)=O)NC1=O)C(=O)N[C@@H](Cc1c[nH]cn1)C(=O)N[C@H](C(=O)N[C@H](C(=O)N1CCC[C@H]1C(=O)O)[C@@H](C)O)CSSC[C@H](NC(=O)[C@@H]1CCCN1C(=O)[C@H](CC(=O)O)NC(=O)[C@H](CC(C)C)NC3=O)C(=O)N[C@@H](CCCCN)C(=O)N[C@@H](CCCCN)C(=O)N[C@@H](C)C(=O)NCC(=O)N[C@@H](CCSC)C(=O)N[C@@H](CCCNC(=N)N)C(=O)N[C@@H](Cc1ccccc1)C(=O)NCC(=O)N[C@@H](CCCCN)C(=O)N2` [SEQ ID NO: 27] (H-GSGVPINVKCRGSRDCLDPCKKAGMRFGKCINSKCHCTP-OH; disulfide 10-30, 16-35, 20-37), for which the “resistance in SPTD (SGF, pepsin, Tris, DTT) (in words)” value at pepsin [1] is “highly resistant”. Also, the “stability in simulated gastric fluid / low pH (in words)” value in data set [2] is reported as “highly resistant; also recorded: remained intact”. The “resistance to trypsin, Example 7 conditions (in words)” value at trypsin (50 U trypsin (500 U/ml), 30 min at room temperature, with or without 10 mM DTT) is “remained intact”. Also, the “resistance to trypsin digestion (in words)” value at trypsin was “highly resistant; also recorded: fully resistant”. The “resistance to pepsin, Example 7 conditions (in words)” value at pepsin [3] (500 U pepsin (5000 U/ml) in SGF, 30 min at room temperature, with or without DTT) is “remained intact”. For the same molecule, on pepsin [3], the “resistance to pepsin digestion (in words)” value is recorded as “highly resistant”.
Consider “GSPDEYIERAKECCKKGDIQCCLRYFEESGDPNVMLICLFCP [SEQ ID NO: 39]”, for which the “binding to target protein after DTT treatment” value with TEAD protein (5 minutes in 10 mM DTT) is “partial loss in binding”. Besides, the “binding to target protein after GSH treatment” value in the data set on TEAD protein (5 minutes in 10 mM GSH) is “no loss in binding”. Also, the “resistance to GSH reducing conditions” value in data set [4] is on record as “resistant”.
Take “GSPDEYIERAKECCKKQDIQCCLRIFDESGDPNVMLICLFCW [SEQ ID NO: 44]”: the “CD secondary structure signature before (Pre) and after (Post) incubation at 95° C.” value in data set [5] is “similar; also recorded: identical”. Besides, the “resistance to reduction by DTT (in words)” value (“resistance to reduction” below) in data set [6] is listed as “partially resistant”. Moreover, the “melting temperature (Tm)” value in data set [7] was “no melting temperature could be determined”.
For the molecule “GSPDEYIERAKECCKKQDIQCCLRIFDESKDPNVMLICLFCP [SEQ ID NO: 45]”, the “resistance to incubation at 100° C. (in words)” value in data set [8] is “resistant”. Besides, in data set [5], the “CD secondary structure signature before (Pre) and after (Post) incubation at 95° C.” value is listed as “identical; also recorded: similar”. Also, in data set [6], the “resistance to reduction” value is on record as “partially resistant”. Besides, the “melting temperature (Tm)” value in [7] is on record as “no melting temperature could be determined”. In the data set with pepsin [3], the “resistance to pepsin digestion (in words)” value is “resistant”.
Take “GSQFTNVSCTTSRECWSVCQRLHNTSRGRCMNRRCRCYS [SEQ ID NO: 2]”: the “resistance to reduction” value in [6] is “remained intact; also recorded: highly resistant”. Besides, the “resistance in SPTD (SGF, pepsin, Tris, DTT) (in words)” value in the data set with pepsin [1] is “resistant”. For the same molecule, the “stability in simulated gastric fluid / low pH (in words)” value in [2] is listed as “remained intact”. Moreover, the “resistance to trypsin digestion (in words)” value with trypsin was “highly resistant”.
